From patent EP3689907A1 (Numab Therapeutics AG, dated 2020) come the findings set out here.

What is called Kd is the constant that tells how readily two partners part at equilibrium. As usually defined, the koff is the first-order rate constant of dissociation. What is called kon is a measure of how fast the partners come together.

One assay concerns the target T1, human IL-17F (human, UniProt Q96PD4 31-163).
T1 construct: Peprotech Cat. No. 200-25 in the direct ELISA
T1 sequence: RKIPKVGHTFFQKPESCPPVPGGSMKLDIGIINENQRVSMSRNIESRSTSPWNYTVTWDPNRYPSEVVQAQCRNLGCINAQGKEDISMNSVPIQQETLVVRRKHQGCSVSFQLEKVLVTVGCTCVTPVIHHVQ
Put plainly: competition ELISA: coated scFv, biotinylated IL-17A, unlabeled cytokine as competitor. (In general: An ELISA detects its analyte on a solid surface through an enzyme-linked reagent.)

Another assay addresses T2, human IL-17E (human, UniProt Q9H293 33-177).
T2 construct: also called IL-25
T2 sequence: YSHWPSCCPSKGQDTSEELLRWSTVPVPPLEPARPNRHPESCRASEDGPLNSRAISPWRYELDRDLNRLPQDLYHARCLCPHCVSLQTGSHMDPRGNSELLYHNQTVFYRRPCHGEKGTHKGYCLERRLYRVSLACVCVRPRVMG
The assay is described as above.

The target in another assay is T3, human IL-17B (human, UniProt Q9UHF5 21-180).
T3 sequence: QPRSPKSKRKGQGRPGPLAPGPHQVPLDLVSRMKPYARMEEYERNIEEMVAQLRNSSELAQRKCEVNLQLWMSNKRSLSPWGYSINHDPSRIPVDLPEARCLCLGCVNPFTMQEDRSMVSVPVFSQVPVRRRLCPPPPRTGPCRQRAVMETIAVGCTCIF
The description is as above.

The next assay deals with T4, human IL-17C (human, UniProt Q9P0M4 19-197).
T4 sequence: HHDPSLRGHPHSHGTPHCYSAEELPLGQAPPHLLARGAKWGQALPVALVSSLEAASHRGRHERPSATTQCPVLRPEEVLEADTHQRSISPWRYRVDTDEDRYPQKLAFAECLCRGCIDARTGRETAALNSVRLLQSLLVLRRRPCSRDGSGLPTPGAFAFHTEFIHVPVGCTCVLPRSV
The assay is described as above.

The target in the next assay is T5, human IL-17D (human, UniProt Q8TAD2 16-202, limits assumed).
T5 sequence: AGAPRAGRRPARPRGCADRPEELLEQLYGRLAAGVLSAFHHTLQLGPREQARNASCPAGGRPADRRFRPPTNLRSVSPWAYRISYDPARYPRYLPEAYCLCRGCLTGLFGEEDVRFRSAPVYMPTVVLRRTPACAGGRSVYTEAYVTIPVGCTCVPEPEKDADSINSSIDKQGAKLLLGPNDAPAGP
Described as above.

A further assay concerns the target T6, cynomolgus monkey IL-17A (cynomolgus monkey (Macaca fascicularis)).
T6 chain: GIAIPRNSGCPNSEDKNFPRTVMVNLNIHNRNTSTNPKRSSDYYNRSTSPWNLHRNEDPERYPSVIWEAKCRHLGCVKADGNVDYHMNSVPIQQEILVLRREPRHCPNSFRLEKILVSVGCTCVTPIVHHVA
Put plainly: SPR (Biacore T200), cynomolgus IL-17A (Trenzyme), scFv as analyte. A general note: In SPR one partner is held on a chip, and binding of the other changes the refractive index at the surface.

Where a chain is given by its changes, count along the chain named.

B1: PRO571 (scFv)
scFv: DIQMTQSPSSLSASVGDRVTITCQASESIYRYLSWYQQKPGKAPKLLIYLASTLTSGVPSRFSGSGSGTDFTLTISSLQPEDFATYYCQSNFGTASTTYYNTFGGGTKLTVLGGGGGSGGGGSGGGGSGGGGSEVQLVESGGGLVQPGGSLRLSCAASGFSFSGFYYMCWVRQAPGKGLEWIGCIDTGDGTTYYASWAKGRFTISRDNSKNTVYLQMNSLRAEDTAVYYCARDAAYGGYAYPAHGMDLWGQGTLVTVSS
notes: also called 27-31-C04-sc01; 27_31_C04_sc01
With B1, the binding result with human IL-17F, with human IL-17E, with human IL-17B, in the assay with human IL-17C and with human IL-17D was “no binding” each time. The same molecule came in with a Kd with cynomolgus monkey IL-17A of 0.0331 nM. The koff with cynomolgus monkey IL-17A was 3.88e-05 s⁻¹. For the same molecule, the kon in the assay with cynomolgus monkey IL-17A worked out at 1.17e+06 M⁻¹ s⁻¹.

B2: PRO592 (scFv)
scFv: B1 scFv with R152T, Q251P
notes: also called 27-31-C04-sc02; 27_31_C04_sc02
Turning to B2, the binding result in the assay with human IL-17F, in the assay with human IL-17E, with human IL-17B, in the assay with human IL-17C and with human IL-17D was “no binding” in each case. This molecule also showed a dissociation constant (Kd) in the assay with cynomolgus monkey IL-17A of 0.16 nM. In the assay with cynomolgus monkey IL-17A, this molecule gave a koff of 5.38e-05 s⁻¹. In the assay with cynomolgus monkey IL-17A, this molecule had a kon of 336000 M⁻¹ s⁻¹.
